# T1: Recombinant human Angiopoietin-1 (R&D Systems Cat No 923-AN/CF) (human, UniProt Q15389 20-498, limits assumed)
# T1 construct: Bought reagent; also called Ang1; human Ang1
# T1 sequence (looked up): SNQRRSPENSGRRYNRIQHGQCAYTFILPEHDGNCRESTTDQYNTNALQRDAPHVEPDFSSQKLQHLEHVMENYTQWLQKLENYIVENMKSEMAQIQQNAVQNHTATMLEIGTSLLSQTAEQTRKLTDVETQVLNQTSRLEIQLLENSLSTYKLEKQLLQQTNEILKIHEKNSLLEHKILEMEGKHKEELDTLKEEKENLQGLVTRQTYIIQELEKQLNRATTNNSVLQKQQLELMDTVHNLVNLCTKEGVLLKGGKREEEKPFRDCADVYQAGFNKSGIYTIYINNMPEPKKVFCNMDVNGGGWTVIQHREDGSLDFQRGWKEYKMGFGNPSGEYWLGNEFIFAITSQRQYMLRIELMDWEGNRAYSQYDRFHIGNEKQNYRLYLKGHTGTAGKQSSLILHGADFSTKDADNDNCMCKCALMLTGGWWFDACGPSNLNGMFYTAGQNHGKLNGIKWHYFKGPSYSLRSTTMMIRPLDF
# T2: Recombinant human Angiopoietin-2 (R&D Systems Cat No 623-AN/CF) (human, UniProt O15123 19-496, limits assumed)
# T2 construct: Bought reagent; also called Ang2; human Ang2
# T2 sequence (looked up): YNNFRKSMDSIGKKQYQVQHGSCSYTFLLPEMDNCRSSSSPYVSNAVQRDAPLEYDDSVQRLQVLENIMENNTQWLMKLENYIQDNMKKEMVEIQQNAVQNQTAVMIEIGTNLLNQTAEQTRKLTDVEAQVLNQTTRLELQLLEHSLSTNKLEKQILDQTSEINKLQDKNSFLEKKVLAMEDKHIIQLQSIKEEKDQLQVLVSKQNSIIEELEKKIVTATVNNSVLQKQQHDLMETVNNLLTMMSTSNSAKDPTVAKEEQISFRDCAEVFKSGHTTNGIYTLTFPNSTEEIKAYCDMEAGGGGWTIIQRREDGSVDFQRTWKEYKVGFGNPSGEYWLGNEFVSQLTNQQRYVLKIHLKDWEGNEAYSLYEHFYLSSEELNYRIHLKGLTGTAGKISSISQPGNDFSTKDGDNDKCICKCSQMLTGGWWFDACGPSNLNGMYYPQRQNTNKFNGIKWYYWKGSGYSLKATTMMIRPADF
# T3: biotinylated rh Ang2 (R&D Systems Cat No BT623, Lot No BNR174091) (human, UniProt O15123 19-496, limits assumed, biotinylated (sites not given))
# T3 construct: Bought reagent; also called biotinylated Ang2
# T3 sequence (looked up): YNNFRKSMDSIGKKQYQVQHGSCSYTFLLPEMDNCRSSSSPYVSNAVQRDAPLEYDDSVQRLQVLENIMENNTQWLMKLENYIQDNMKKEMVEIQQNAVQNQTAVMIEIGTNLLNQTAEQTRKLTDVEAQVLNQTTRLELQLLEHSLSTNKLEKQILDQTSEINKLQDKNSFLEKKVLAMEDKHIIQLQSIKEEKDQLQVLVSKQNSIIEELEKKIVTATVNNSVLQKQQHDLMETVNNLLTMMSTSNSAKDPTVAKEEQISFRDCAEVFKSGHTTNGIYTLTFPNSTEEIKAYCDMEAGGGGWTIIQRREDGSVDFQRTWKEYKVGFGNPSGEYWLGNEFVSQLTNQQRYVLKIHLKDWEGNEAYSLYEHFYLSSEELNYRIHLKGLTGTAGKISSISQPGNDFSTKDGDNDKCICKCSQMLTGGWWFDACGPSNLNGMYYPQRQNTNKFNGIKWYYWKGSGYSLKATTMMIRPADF
# Columns and labels:
# [1] = molecular target: T1, Recombinant human Angiopoietin-1 (R&D …); assay: phage ELISA: 10 ul monoclonal phage supernatant in 100 ul on 0.2 ug/ml coated Ang1, anti-M13-HRP, OD 450 nm
# Experimental: (§1) In order to determine binding specificity to Ang1, the clones are tested in an ELISA binding assay setup, using the monoclonal phage pools. Phage binding to Ang1 (R&D Systems Cat No 923-AN/CF, Lot No FHWO73091) is tested. Shortly, 0.2 ug/ml Ang1 is immobilized on Maxisorp ELISA plates (Nunc) and free binding sites are blocked using 4% Marvel skimmed milk in PBS. Next, 10 ul of supernatant from the monoclonal phage inductions of the different clones in 100 ul 2% Marvel PBS are allowed to bind to the immobilized antigen. […] Binding specificity is determined based on OD values compared to controls having received an irrelevant phage or no phage.
# [2] = molecular target: T2, Recombinant human Angiopoietin-2 (R&D …); assay: phage ELISA: 10 ul monoclonal phage supernatant in 100 ul on 0.2 ug/ml coated Ang2, anti-M13-HRP, OD 450 nm
# Experimental: as §1, with “to Ang2,” for “to Ang1,”, “to Ang2” for “to Ang1”, “No 623-AN/CF)” for “No 923-AN/CF, Lot No FHWO73091)”, “ug/ml Ang2” for “ug/ml Ang1”, “plates (Nuns)” for “plates (Nunc)”, “2% Marvel.” for “2% Marvel”
# [3] = molecular target: T3, biotinylated rh Ang2 (R&D Systems Cat …); assay: competition ELISA: 0.05 ug/ml biotinylated Ang2 pre-incubated with 10 ul periplasmic extract, then on coated Tie2/Fc (4 ug/ml); bound Ang2 detected with extravidin-HRP; blocked partner: Tie2/Fc
# Experimental: Clones tested positive in the Ang2 binding assay are screened for their ability to block Ang2 binding to Tie2/Fc. For this, Nanobody-containing periplasmic extracts (P.E.) are used in an ELISA-based ligand competition setup. In short, 4 ug/ml human Tie2/Fc Chimera (R&D Systems Cat No 313-TI, Lot No BKC06)) is coated in 96 well Maxisorp microliter plates (Nunc) and blocked with 4% Marvel skimmed milk in PBS. In parallel, 0.05 ug/ml biotinylated rh Ang2 (R&D Systems Cat No BT623, Lot No BNR174091) is incubated with 10 ul of periplasmic extract containing nanobody of the different clones in 100 ul 2% Marvel/PBS. After 1 hour, the biotinylated Ang2-Nanobody pre-mixes are incubated 1 hour with the coated receptor. Bound biotinylated. Ang2 is detected using HRP-conjugated extravidin (SIGMA E2886-1mL, 126K4801). Blocking activity is determined as loss of OD signal, as compared to wells where no P.E., or irrelevant P.E., has been added.
# [4] = molecular target: T3, biotinylated rh Ang2 (R&D Systems Cat …); assay: competition ELISA: 0.05 ug/ml biotinylated Ang2 pre-incubated with a dilution series of purified Nanobody, then on coated Tie2/Fc (4 ug/ml); bound Ang2 detected with extravidin-HRP; blocked partner: Tie2/Fc
# Experimental: In order to determine the receptor blocking efficiency of clones tested positive for Ang2 blocking, a dilution series of purified Nanobodies are tested in the ELISA-based ligand competition setup. In short, 4 ug/ml human Tie2/Fc Chimera (R&D Systems Cat No 313-TI, Lot No BKC06)) is coated in 96 well Maxisorp microtiter plates (Nunc) and blocked with 4% Marvel skimmed milk in PBS. In parallel, 0.05 ug/ml biotinylated rh Ang2 (R&D Systems Cat No BT623, Lot No BNR174091) is incubated with a dilution series of purified Nanobodies. After 1 hour, the biotinylated Ang2-Nanobody pre-mixes are incubated 1 hour with the coated receptor. Bound biotinylated Ang2 is detected using HRP-conjugated extravidin (SIGMA E2886-1ML, 126K4801). Blocking activity is determined as loss of OD signal, as compared to wells where no P.E., or irrelevant P.E. has been added.
# [5] = molecular target: T4, recombinant human Tie2/Fc Chimera (R&D Systems Cat No 313-TI, Lot No BKC06) (human, UniProt Q02763 23-745); assay: phage ELISA: 10 ul monoclonal phage supernatant in 100 ul on 0.2 ug/ml coated Tie2/Fc, anti-M13-HRP, OD 450 nm
# T4 construct: Bought reagent; also called receptor; not shown: Fc portion of the bought chimera
# Experimental: In order to determine binding specificity to Tie2, the clones are tested in an ELISA binding assay setup, using the monoclonal phage pools. Phage binding to Tie2/Fc Chimera (R&D Systems Cat No 313-TI, Lot No BKC06) is tested. Shortly, 0.2 ug/ml receptor is immobilized on Maxisorp ELISA plates (Nunc) and free binding sites are blocked using 4% Marvel skimmed milk in PBS. Next, 10 ul of supernatant from the monoclonal phage inductions of the different clones in 100 ul 2% Marvel PBS are allowed to bind to the immobilized antigen. […] Binding specificity is determined based on OD values compared to controls having received no phage and to controls where in a similar ELISA binding assay the same monoclonal phage are tested for binding to 0.2 ug/ml of immobilized human IgG and 0.2 ug/ml of rh B7.2/Fc.
# [6] = molecular target: T2, Recombinant human Angiopoietin-2 (R&D …); assay: listed in the alignment of Ang2 binding Nanobodies; assay not told for this clone
# [7] = molecular target: T4, recombinant human Tie2/Fc Chimera (R&D …); assay: competition ELISA: 0.2 ug/ml Tie2/Fc pre-incubated with a dilution series of purified Nanobody, then on coated Ang1 (0.75 ug/ml); bound Tie2/Fc detected with anti-human IgG-HRP; blocked ligand: Ang1
# Experimental: In order to determine the receptor blocking efficiency of clones tested positive for Ang1 competition, a dilution series of purified Nanobodies are tested in the ELISA-based ligand competition setup. In short, 0.75 ug/ml human. Ang1 (R&D Systems Cat No 923-AN/CF Lot No FHWO73091) is coated in 96 well Maxisorp microliter plates (Nunc) and blocked with 4% Marvel skimmed milk in PBS. In parallel, 0.2 ug/ml Tie2/Fc is incubated with a dilution series of purified Nanobodies. After 1 hour, the receptor-Nanobody pre-mixes are incubated 1 hour with the coated ligand. Bound Tie2/Fc is detected using HRP-conjugated goat anti-human IgG (Jackson Immunoresearch, Cat #109-035-098). Blocking activity is determined as loss of OD signal, as compared to wells where no P.E., or irrelevant P.E., has been added.
# T4 sequence (Q02763 23-745, change not shown): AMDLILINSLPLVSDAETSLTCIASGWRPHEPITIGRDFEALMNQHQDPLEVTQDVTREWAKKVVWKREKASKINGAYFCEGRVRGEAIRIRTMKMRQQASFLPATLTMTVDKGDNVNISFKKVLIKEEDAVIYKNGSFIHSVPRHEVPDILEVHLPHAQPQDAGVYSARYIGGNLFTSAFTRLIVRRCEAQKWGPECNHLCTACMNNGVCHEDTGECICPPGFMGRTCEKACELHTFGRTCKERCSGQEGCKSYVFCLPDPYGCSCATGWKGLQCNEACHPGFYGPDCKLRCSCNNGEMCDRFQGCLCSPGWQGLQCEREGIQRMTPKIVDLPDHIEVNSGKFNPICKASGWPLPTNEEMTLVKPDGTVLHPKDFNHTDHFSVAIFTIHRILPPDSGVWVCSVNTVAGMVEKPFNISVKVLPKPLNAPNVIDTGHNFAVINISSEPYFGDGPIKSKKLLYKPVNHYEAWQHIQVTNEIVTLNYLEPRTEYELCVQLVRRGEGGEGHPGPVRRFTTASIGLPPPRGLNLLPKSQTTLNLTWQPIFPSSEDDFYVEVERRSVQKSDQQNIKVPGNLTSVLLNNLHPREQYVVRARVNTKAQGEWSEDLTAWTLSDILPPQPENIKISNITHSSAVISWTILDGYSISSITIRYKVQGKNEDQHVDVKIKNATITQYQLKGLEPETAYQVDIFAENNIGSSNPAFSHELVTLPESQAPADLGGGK
binder,measurement,setting,value
"173-H9 (VHH, Nanobody) VHH: EVQLVESGGGLVQPGGSLRLSCAASGFTLSGNWMYWLRQAPGKGLEWISTITPRGLTAYADSVKGRFTISRDIAENTLYLQMNSLKSGDTAVYYCARDKTGERRGQGTQVTVSS",binding result,[1],binds
"184-B6 (VHH, Nanobody) VHH: EVQLVESGGGLVQPGGSLRLSCAASGFTFSNYAMTWVRQAPGKGLEWVSDISWDGDITTYAASVKGRFTISRDNAKKTLYLQMNSLKPEDSAVYYCNTYGYDSGRYYSYWGQGTQVTVSS",binding result,[1],binds
"185-H5 (VHH, Nanobody) VHH: EVQLVESGGGLVQPGGSLRLSCAASGFTLDYYAIGWFRQAPGKEREGVSYISSSDGRTYYADSVKGRFTISRDNAKNTVYLQMNSLKPEDTAVYYCATDLSGRGDVSEYEYDYWGQGTQVTVSS",binding result,[1],binds
"166-C10 (VHH, Nanobody) VHH: EVQLVESGGGLVQAGGSLRLSCAASGFTFGTTTIGWFRQAPGKEREGVSCISTGDGSTNYAESVKGRFTISSDNAKNTVYLQMNSLKPEDTAVYYCALDQAPMWSSWSAPYEYDYWGQGTQVTVSS",binding result,[2],binds
same,binding result,[3],binds
"166-D7 (VHH, Nanobody) VHH: EVQLVESGGGLVQAGGSLRLSCAASGFTFSDTTIGWFRQAPGKEREGISCISTGDGSTYYAESVKGRFTISSDNAKNTVYLQMNSLNPEDTAVYYCALDQAPLWSTWSAPYEYDYWGQGTQVTVSS",binding result,[2],binds
same,binding result,[3],binds
"166-H4 (VHH, Nanobody) VHH: EVQLVESGGDLVQAGGSLRLSCAASGFTFGDFTIGWFRQAPGKEREGVSCINTGDGSTNYAESVKGRFTISSDNAKNTVYLQMNSLKPEDTAVYYCALDQAPMWSSWSAPYEYDYWGQGTQVTVSS",IC50 (read off the curve),[4],~4 nM
"166-F8 (VHH, Nanobody) VHH: EVQLVESGGGLVQAGGSLRLSCAASGFTFGTTTIGWFRQAPGKEREVVSCISTGGGSTYYTESVKGRFTISSDNAKNTVYLQMNSLKPEDTAVYYCALDQAPMWSNWSAPYEYDYWGQGTQVTVSS",binding result,[2],binds
same,binding result,[3],binds
"162-F3 (VHH, Nanobody) VHH: EVQLVESGGGLVQAGDSLRLSCTTSGRTFSDDTMGWFRQAPRKEREFVAAILWDSIKTYYADSVKGRFTISRDNAKNTVYLQMDSLKPEDTAVYYCAATPTAYGTDWYRNNYHYWGQGTQVTVSS",binding result,[5],binds
166-H5 (VHH) VHH: EVQLVESGGGLVQAGGSLSLACVVSGRFSRINSMAWSRQVPGNARELVASVTSGGYTNYVDSVKGRFTISRDNAKNAIYLQMNSLKSEDTAVYYCNARVVVRTAHGFEDNYWGQGTQVTVSS,binding result,[6],binds
"162-E9 (VHH, Nanobody) VHH: EVQLVESGGGLVQPGGSLRLSCAASGFTLDDYAIGWFRQAPGKEREAVSCISSVDGSTHYADSVKGRFTISRDNAKDTVYLQMNSLKPEDTAAYYCAVQGYSGGYYYTCEDSADFGFWGQGTQVTVSS",IC50 (read off the curve),[7],~3 nM
"162-E1 (VHH, Nanobody; Footnote: q in FR2 of 162-E1 from an Amber stop codon) VHH: EVQLVESGGGLVQAGGSLRLSCAASGSIFSINAMGWYQQAPGKQRELVAFITSVGTTNYADSVKGRFIISRDNAKNTVYLQMNSLKPEDTAVYYCAADLHYSGPNYWGQGTQVTVSS",IC50 (read off the curve),[7],~3 nM

# — US20120076796A1 (Ablynx, published 2012)
